Molecular target: T1, CD33蛋白 (SEQ ID NO:27) on CHO-K1-CD33 / A375-CD33 cells (Homo sapiens (Human), UniProt P20138 18-364)
T1 construct: also called CHO-K1-CD33细胞; A375-CD33细胞
Test: flow cytometry on CHO-K1-CD33 cells, Alexa-647 anti-human Fc

T1 sequence (P20138 18-364 limits assumed): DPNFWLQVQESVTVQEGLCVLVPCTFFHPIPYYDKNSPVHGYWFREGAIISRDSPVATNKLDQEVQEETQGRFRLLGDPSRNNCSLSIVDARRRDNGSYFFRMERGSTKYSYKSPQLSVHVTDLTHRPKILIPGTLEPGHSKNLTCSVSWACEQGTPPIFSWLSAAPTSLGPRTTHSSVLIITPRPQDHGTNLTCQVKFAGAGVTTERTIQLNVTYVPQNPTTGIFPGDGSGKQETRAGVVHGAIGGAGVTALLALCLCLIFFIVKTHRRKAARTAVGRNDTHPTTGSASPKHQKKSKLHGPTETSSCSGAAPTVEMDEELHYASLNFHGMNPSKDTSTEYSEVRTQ

B1: CD3×CD33双特异性抗体 (bispecific antibody, human IgG1, kappa, L234A L235A)
chain: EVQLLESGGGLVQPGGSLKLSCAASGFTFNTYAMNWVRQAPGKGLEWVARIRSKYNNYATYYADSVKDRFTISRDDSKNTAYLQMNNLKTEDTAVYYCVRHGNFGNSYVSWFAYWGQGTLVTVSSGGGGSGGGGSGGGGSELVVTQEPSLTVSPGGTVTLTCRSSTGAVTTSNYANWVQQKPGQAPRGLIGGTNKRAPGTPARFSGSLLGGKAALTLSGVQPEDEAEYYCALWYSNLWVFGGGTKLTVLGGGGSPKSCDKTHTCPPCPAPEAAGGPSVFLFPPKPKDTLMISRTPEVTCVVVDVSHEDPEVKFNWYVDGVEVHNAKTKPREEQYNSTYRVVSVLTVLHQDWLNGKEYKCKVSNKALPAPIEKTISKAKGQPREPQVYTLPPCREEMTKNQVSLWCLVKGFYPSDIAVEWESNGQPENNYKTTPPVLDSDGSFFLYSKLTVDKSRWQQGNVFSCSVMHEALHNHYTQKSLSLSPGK
heavy: EVQLVQSGAEVKKPGSSVKVSCKASGYTITDSNIHWVRQAPGQSLEWIGYIYPYNGGTDYNQKFKNRATLTVDNPTNTAYMELSSLRSEDTAFYYCVNGNPWLAYWGQGTLVTVSSASTKGPSVFPLAPSSKSTSGGTAALGCLVKDYFPEPVTVSWNSGALTSGVHTFPAVLQSSGLYSLSSVVTVPSSSLGTQTYICNVNHKPSNTKVDKKVEPKSCDKTHTCPPCPAPEAAGGPSVFLFPPKPKDTLMISRTPEVTCVVVDVSHEDPEVKFNWYVDGVEVHNAKTKPREEQYNSTYRVVSVLTVLHQDWLNGKEYKCKVSNKALPAPIEKTISKAKGQPREPQVCTLPPSREEMTKNQVSLSCAVKGFYPSDIAVEWESNGQPENNYKTTPPVLDSDGSFFLVSKLTVDKSRWQQGNVFSCSVMHEALHNHYTQKSLSLSPGK
light: DIQLTQSPSTLSASVGDRVTITCRASESLDNYGIRFLTWFQQKPGKAPKLLMYAASNQGSGVPSRFSGSGSGTEFTLTISSLQPDDFATYYCQQTKEVPWSFGQGTKVEVKRTVAAPSVFIFPPSDEQLKSGTASVVCLLNNFYPREAKVQWKVDNALQSGNSQESVTEQDSKDSTYSLSSTLTLSKADYEKHKVYACEVTHQGLSSPVTKSFNRGEC
notes: Fc is human IgG1 with L234A/L235A; also called 抗体CD3×CD33; CD3×CD33双特异抗体
B1: binds.
